According to patent publication US11111295B2, “Antibody for anti-claudin 18A2 and use thereof” (CAFA THERAPEUTICS LIMITED, priority 2016, dated 2021):
Each block holds one molecule with its values, some of them ahead of it.

Columns and labels:
human CLD18A2 [1] = target: T1, human CLD18A2 (Homo sapiens, UniProt P56856); assay: Flow cytometry binding of hybridoma supernatants to HEK293 cells stably transfected with human CLD18A2; settings: hybridoma supernatant; most of subclones after two rounds of subcloning; HEK293 transfectants
T1 construct: expressed in transfected cells
T1 sequence (P56856 1-261 isoform P56856-2): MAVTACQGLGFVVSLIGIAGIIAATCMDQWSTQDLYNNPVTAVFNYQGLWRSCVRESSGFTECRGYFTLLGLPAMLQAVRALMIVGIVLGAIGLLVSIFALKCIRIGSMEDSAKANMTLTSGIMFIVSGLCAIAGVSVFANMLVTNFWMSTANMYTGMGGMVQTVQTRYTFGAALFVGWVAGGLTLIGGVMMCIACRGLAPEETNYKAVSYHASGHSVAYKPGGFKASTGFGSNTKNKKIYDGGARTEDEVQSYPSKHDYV
Description: Individual cells were screened for anti-CLD18A2 monoclonal antibody by flow cytometry, and HEK293 cells (HEK-CLD18A2) stably expressing human CLD18A2 were used for primary screening by flow cytometry using a Guava easyCyte™ HT System instrument. The binding of the antibody to human CLD18A1 and CLD18A2 transformants was then compared by flow cytometry. The instrument used was the Guava easyCyte™ HT System.
After multiple rounds of preparation and screening of hybridomas, the inventors found several antibodies with relatively ideal binding properties.

human CLD18A2 [2] = target: T1, human CLD18A2; assay: Flow cytometry binding of scFv_Fc fusion antibody to HEK293 cells stably transfected with human CLD18A2 (EC50); settings: scFv fused to human IgG1 Fc portion, read-out: relative binding affinity EC50 value
Experimental: Binding of anti-Claudin 18A2 scFv_Fc fusion antibody to HEK293 cells stably transfected with CLD18A2 was determined by flow cytometry. Experimental data was analyzed using GraphPad Prism and Guava easyCyte™ HT System instrument as described in Example 1 to obtain EC50 value.
Expression vectors of ScFv Fc-form of the two mutants were constructed as described in Example 2, and according to the procedure of Example 2, and the experimental data was analyzed using GraphPad Prism and Guava easyCyte™ HT System instrument to obtain EC50.
The binding activity assay was performed as described in Example 2, and experimental data was analyzed using HEK293 cells (HEK-CLD18A2) stably expressing human CLD18A2, GraphPad Prism and Guava easyCyte™ HT System instrument to obtain EC50, and the results are shown in FIG. 5.
(5) The binding activity was tested, and experimental data was analyzed using HEK293 cells (HEK-CLD18A2) stably expressing human CLD18A2, GraphPad Prism and Guava easyCyte™ HT System instrument, and the results are shown in FIG. 6.
The mutant hu8E5-2I of the humanized antibody hu8E5 was constructed as described in Example 3. Experimental data was analyzed using HEK293 cells (HEK-CLD18A2) stably expressing human CLD18A2, GraphPad Prism and Guava easyCyte™ HT System instrument, and the results are shown in FIG. 7.

binding to human CLD18A2 (human CLD18A2 [1]): specifically bound to human CLD18A2 | EC50 (human CLD18A2 [2]): 49.2 nM
B1: 8E5: murine anti-CLD18A2 monoclonal antibody, VH SEQ ID NO:15, VL SEQ ID NO:13 (antibody, V domains shown)
VH: DVQLQESGPDLVKPSQSLSLTCTVTGYSITSGYNWHWIRQFPGNKMEWMGYIHYTGSTNYNPSLRSRISITRDTSKNQFFLQLNSVTTDDTATYYCTRIYNGNSFPYWGQGTSVTVSS
VL: DIVMTQSPSSLTVTPGEKVTMTCKSSQSLFNSGNQKNYLTWYQQRPGQPPKMLIYWASTRESGVPDRFTGSGSGTDFTLTISSVQAEDLAVFYCQNAYSFPYTFGGGTKLEIKR

binding to human CLD18A2 (human CLD18A2 [1]): specifically bound to human CLD18A2
B2: 4A11: murine anti-CLD18A2 monoclonal antibody, VH SEQ ID NO:11, VL SEQ ID NO:9 (antibody, V domains shown)
VH: QIQLVQSGPELKKPGETVKISCKASGYTFTNYGMNWVKQAPGKGLKWMGWINTNTGEPTYAEEFKGRFAFSLETSASTAYLQINNLKNEDTATYFCARFSYGNSFAYWGQGTTVTVSS
VL: DIVMTQSPSSLSVSAGEKVTMSCKSSQSLLNSGNQKNYLAWYQQKPGQPPKLLIYGASTRESGVPDRFTGSGSGTDFTLTISSVQAEDLAVYYCQNDHSYPLTFGAGTKLELKR

binding to human CLD18A2 (human CLD18A2 [1]): specifically bound to human CLD18A2
B3: 3E12: murine anti-CLD18A2 monoclonal antibody, VH SEQ ID NO:7, VL SEQ ID NO:5 (antibody, V domains shown)
VH: QVQLQQSGPELVKPGALVKISCKASGYTFTSYDINWVKQRPGQGLEWIGWIYPGDGSTKYNEKFKGKATLTADKSSSTAYMQLSSLTSENSAVYFCARGGYRYDEAMDYWGQGTTVTVSS
VL: QIVLTQSPAIMSASPGEKVTMTCSASSSISYMHWYQQKPGTSPKRWIYDTSKLASGVPARFSGSGSGTSYSLTISSMEAEDAATYYCHQRSSYPYTFGGGTKLEIKR
